*1 amine or outer side, *2 acyl side, *3 side chain or, on linkers, in order; H or OH if unused. [ ]: non-standard residue; d: D form. pT = C[C@@H](OP(=O)(O)O)[C@H](N)C(=O)O; Suc = O=C(CCC(=O)[*:2])[*:1]
Molecular target: TbPar42 N-terminal extended FHA domain (1-177) (T. brucei)
Experiment: NMR titration; 440 uM 15N-labelled NterFHA or PPIase in 50 mM potassium phosphate, pH 6.26, 90%/10% H2O/D2O; peptide added stepwise to 13 mM; 1H-15N-HSQC or SOFAST spectra, 700 MHz, 27 °C

B1: Suc-Ala-pThr-Pro-Ala-NH2 (peptide)
peptide: Suc-A[pT]PA-NH2
SMILES: C[C@H](NC(=O)[C@@H]1CCCN1C(=O)[C@@H](NC(=O)[C@H](C)NC(=O)CCC(=O)O)[C@@H](C)OP(=O)(O)O)C(N)=O
  Kd: 4 mM

Source: publication PMC6468809, “Structural Analysis of the 42 kDa Parvulin of Trypanosoma brucei” (Biomolecules, 2019)
